Data published in patent US20140302035A1 (MERRIMACK PHARMACEUTICALS, published 2014).

Biological target: T1, Human EpCAM-Fc-his tagged (human)
T1 construct: also called Recombinant polyhistidine-tagged EpCAM-Fc; recombinant EpCAM
Assay: BLI (ForteBio Octet), antibody loaded on Protein A tips, recombinant polyhistidine-tagged EpCAM-Fc in solution

T1 sequence (chain, as listed by the source): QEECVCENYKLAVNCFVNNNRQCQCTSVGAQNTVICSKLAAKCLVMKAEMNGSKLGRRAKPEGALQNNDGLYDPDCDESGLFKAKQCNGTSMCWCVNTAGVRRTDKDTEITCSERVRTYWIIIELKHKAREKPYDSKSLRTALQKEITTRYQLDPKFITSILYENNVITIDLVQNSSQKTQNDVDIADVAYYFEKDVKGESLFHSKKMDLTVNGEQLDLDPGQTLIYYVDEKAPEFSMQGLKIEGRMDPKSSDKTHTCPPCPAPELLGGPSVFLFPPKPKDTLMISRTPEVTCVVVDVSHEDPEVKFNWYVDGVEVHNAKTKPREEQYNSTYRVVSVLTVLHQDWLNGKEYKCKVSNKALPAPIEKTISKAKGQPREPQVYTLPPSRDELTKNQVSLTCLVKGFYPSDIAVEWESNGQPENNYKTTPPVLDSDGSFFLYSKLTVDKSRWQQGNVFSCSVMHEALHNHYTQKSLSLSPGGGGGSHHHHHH

B1: Ab#2 (bispecific antibody, human IgG1, kappa)
heavy: QLQLQESGPGLVKPSETLSLTCTVSGGSISSSVYYWSWIRQPPGKGLEWIGVIYPSGNTYYSPSLKSRVTISVDTSKNQFSLKLSSVTAADTAVYYCARTIYDLFDIWGQGTMVTVSSASTKGPSVFPLAPSSKSTSGGTAALGCLVKDYFPEPVTVSWNSGALTSGVHTFPAVLQSSGLYSLSSVVTVPSSSLGTQTYICNVNHKPSNTKVDKKVEPKSCDKTHTCPSCPAPEFLGGPSVFLFPPKPKDTLMISRTPEVTCVVVDVSQEDPEVQFNWYVDGVEVHNAKTKPREEQFNSKYRVVSVLTVLHQDWLNGKEYKCKVSNKGLPSSIEKTISKAKGQPREPQVYTLPPSREEMTKNQVSLSCAVKGFYPSDIAVEWESNGQPENNYKTTPPVLDSDGSFFLVSKLTVDKSRWQQGNVFSCSVMHEALHNHYTQKSLSLSKSCDKTGGGGSGGGGSGGGGSGGGGSGGGGSGGGGSGGGGSGGGGSCPSCPAPEFLGGPSVFLFPPKPKDTLMISRTPEVTCVVVDVSQEDPEVQFNWYVDGVEVHNAKTKPREEQFNSDYRVVSVLTVLHQDWLNGKEYKCKVSNKGLPSSIEKTISKAKGQPREPQVYTLPPSREEMTKNQVSLWCLVKGFYPSDIAVEWESNGQPENNYKTTPPVLDSDGSFFLYSKLTVDKSRWQQGNVFSCSVMHEALHNHYTQKSLSLSGECGGGGSGGGGSQVQLVQSGSELKKPGESVKVSCKASGYTFTNYGMHWVRQAPGQGLKWMGWINTYTGESTYADDFKGRFAFSLDTSASTAYLQISSLKAEDTAVYFCARFAIKGDYWGQGTLVTVSSASTGGGGSGGGGSGGGGSGGGGSDIVMTQSPLSLPVTPGEPASISCRSTKSLLHSDGITYLYWYLQKPGQSPQLLIYQLSNLASGVPDRFSSSGSGTDFTLKISRVEAEDEGVYYCAQNLEIPYTFGQGTKVEIK
light: DIQMTQSPSSVSASVGDRVTITCRASQGISSWLAWYQQKPGKAPKLLIYAASSLQSGVPSRFSGSGSGTDFTLTISSLQPEDFATYYCLQANSFPPTFGGGTKVEIKRTVAAPSVFIFPPSDEQLKSGTASVVCLLNNFYPREAKVQWKVDNALQSGNSQESVTEQDSKDSTYSLSSTLTLSKADYEKHKVYACEVTHQGLSSPVTKSFNRGEC
notes: Anti-c-Met Fab / tandem Fc / anti-EpCAM scFv TFcBA; also called Antibody #2
- binding result: no binding
